The text below walks through data of PMC11233452.

This data set concerns the target T1, PsrA (Pseudomonas aeruginosa PAO1) (UniProt Q9HZJ9).
T1 sequence: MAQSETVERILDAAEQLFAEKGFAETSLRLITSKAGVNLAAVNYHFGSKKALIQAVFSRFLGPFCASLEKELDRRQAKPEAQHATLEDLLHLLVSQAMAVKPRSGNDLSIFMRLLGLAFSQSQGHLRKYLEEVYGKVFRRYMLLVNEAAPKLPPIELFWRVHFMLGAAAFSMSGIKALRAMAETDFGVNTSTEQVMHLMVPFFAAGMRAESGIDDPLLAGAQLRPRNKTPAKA
Nature of the data set: EMSA. (In general: Mobility shift assays separate free from complexed probe on a gel.)

For the sequence “GCGCACGGCACGGGGAGTCGTCGTTTTGGAGGTGAGGGATGACGGCTCTGTTTCAGGATATTTTTATAATTATGTGAAAGAAGAGCTTATTTCAACGAAATATGTTTCATATTGCTCGTAAATTCGACGAAAAGAAAATCCGGATATTTACCGGTTATTTAACGTTAATACCAAGGGCCTAATACCAAAGTATTAACGCTGGCATGCCGGCATGTCGTGTTCGGTCGTGGAGCGAGCCGAGCCAGGAACGGTTCTAAGAAACGA (double strand) [PmvfR 17-280 bp]”, the binding result was “no binding”.

Consider “CGCTTCCCTTGATCGGGTCAGGTTGCCGCTACTGTGGAAGAAGCGTCGAGGACTCGATAGATAGCGCCCGAGTGTTTCAACTTGTCTTCTGGATGACGTTTTCATCGGGGAAACCTCCCGTCGGTCAGTGAAGCGCAAGGGCTGGCGTGCGAGGGTGGAATCGGCCGCCGGCTCGCTTTCTGCGCGGCGGGCGCACGGCACGGGGAGTCGTCGTTTTGGAGGTGAGGGATGACGGCTCTGTTTCAGGA (double strand) [PmvfR 223-470 bp]”, for which the binding result is “no binding”.

As to “TGGCGATGGGCCGACAGTGAACCCGGGGACCAGGTGTGACTGGGTATTCAGTTCGCATAAAATGTGATCTAGATCACATTTAAACGTTTGCTTACCCTCTAGGACGGGTATCGTACTAGGTGCATCAAACGCTGCGGTCTATTGTTAAGTGGGACTGAAATGTGCCTTTCCGGCACAACGCCAACTCTATAG (double strand) [PlasR 153-344 bp]”, the binding result was “binds”.

Consider “TGTGCGGTTGTGACAATTCCATGAAACGCCGACAGGCCGCCGCCATGGCCGGGTCCTCGAGCAAGCGCCACAGCGCCCCGCGCAACTCCTGCTCGCGCAACGGCACGCCCAGGCGCATCCCGCAGCCGAGCCGGACCAGCCGTTCGGCATTGTCGAACTGGTCGTGGGCACAGGGCAGCAGCACCTGCGGCACCCCCGCCGCCAAGGCTAGGCTCATGGCGCCGATACCGCCCGGATGGACCAGCCCGGCGCACGATGGCAGCAAGGCTCCCAGTGGCGCGTA (double strand) [PrhlR 11-293 bp]”, for which the binding entry was “no binding”.

As for “CCTGTCGGCGTTTCATGGAATTGTCACAACCGCACAGTATCGCTTGCGGTAAAGCGGCCCAGGTGGTCGAACGTTGTCATAGGGAGGGGGATGCTCGATGGCTGAAGGCTGCGTCCTGAACGGTGCTGGCATAACAGATAGGGTTGCCATGATTTTGCCGTATCGGCAAGGCTGCGCGCTTGACAGCGTCATACCCCGGGCCAATTCTGCTGTGATGCATTTTATCGATCAGGGCTTACTGCAATGAGGAATGACGGAGGCTTTTTGCTGTGGTGGGACGGTTTGCGTAGCGAGATG (double strand) [PrhlR 258-544 bp]”, the binding result is “no binding”.
